The supplement of paper PMC10567573

B1: SETD8 (parent)
chain: GKQAPRKKAQGKTQQNRKLTDFYP
B2: C2orf65 (parent)
chain: QLDWDELETNQQHFHALCHSLLVS

Variants of: B1
Experiment: protein stability index of a GFP-peptide fusion (GPS, HEK-293T) (PSI 1-6); higher = more stable
Details: c terminus: a fixed tail appended
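Further: lentivirally expressed fusions sorted by FACS into six bins by GFP to DsRed ratio, PSI derived from sequencing read proportions per bin multiplied by bin number.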

Protein stability index of substitutions, site by site:
R17: L 2.32 | N 3.34 | P 3.06 | T 2.61
T20: P 4.41 | Q 4.11 | N 3.61 | F 3.06 | M 4.3 | H 3.94 | E 4.22 | K 3.54 | C 2.54 | D 4.5 | I 3.29
K18: Y 2.76 | C 2.89 | D 4.87 | Q 3.45 | N 4.19 | V 3.75 | M 2.06 | L 2.56 | S 3.51 | A 3.15 | F 3.85 | H 2.69 | I 4.29 | T 3.05 | P 2.96 | E 3.2
P24: W 1.91 | N 2.18 | Y 2.73 | G 4.31 | C 3.62 | K 3.09 | M 4.09 | H 4.02 | Q 3.65 | D 4.33 | L 3.56 | R 2.67 | A 2.66 | I 3.44 | F 3.48 | S 3.43
D21: T 3.9 | F 2.59 | N 3.24 | P 3.83 | R 3.46 | I 3.13 | E 1.79 | A 3.03 | L 3.53 | C 4.41 | H 3.57 | K 3.91 | V 3.21 | M 3.46 | Y 2.97
F22: I 4.13 | Q 4.17 | D 3.15 | S 4.69 | H 4.13 | K 4.97 | R 3.6 | E 4.61 | P 4.98 | G 4.75 | T 4.57 | M 4.7 | N 4.77 | A 4.61 | L 4.51
Y23: V 4.05 | S 4.39 | E 4.51 | I 4.07 | D 4.64 | N 4.83 | K 5.33 | C 4.28 | L 3.96 | Q 4.04 | G 4.34 | H 4.93 | P 4.44 | T 5.12
L19: K 4 | R 4.33 | E 4.62 | F 3.27 | Q 3.84 | D 5.33 | H 3.77 | Y 3.32 | G 3.91 | A 4.54 | N 4.73 | S 4.39 | W 2.97

Variants of: B2
Experiment: as above
Details: c terminus: a fixed tail appended

Protein stability index: each site, then its substitutions
H13: A 2.16 | D 2.37 | C 2.31
D5: L 1.22 | H 2.04 | F 2.47 | W 1.18 | E 2.54 | K 2 | Y 2.31 | M 1.95 | V 1.66 | Q 1.57 | P 2.34 | I 1.58 | R 1.95 | T 2.18 | C 1.55 | S 1.83 | N 1.49 | A 2.01 | G 2.07
D3: G 2.85 | Y 1.47 | N 2.01 | Q 2.1 | P 2.07 | L 1.45 | A 2.27 | F 1.93 | T 2.59 | H 1.92 | R 1.85 | S 1.57 | V 1.73 | E 2.27 | M 1.05 | C 1.85 | I 2.23 | K 1.83 | W 3.03
Q1: C 1.65 | S 2.21 | D 2.67 | G 2.55 | P 2.48 | K 1.75 | A 2.11 | F 1.81 | N 2.25 | R 1.96 | M 2.46 | T 2.06 | E 2.29 | L 1.64 | Y 1.68 | I 1.5 | V 2.5 | H 2.22 | W 1.51
L2: Q 2.42 | D 2.55 | A 2.68 | F 1.98 | T 2.02 | I 1.78 | G 2.33 | Y 1.64 | S 2.17 | V 2.31 | K 2.4 | P 3.02 | H 2.51 | W 1.63 | E 2.97 | R 2.25 | N 2.31 | M 1.94 | C 1.95
E6: N 1.79 | T 1.82 | Q 1.84 | D 1.9 | P 2.5 | G 2.13 | S 1.66 | Y 1.44 | F 3.45 | K 1.46 | W 2.55 | C 1.95 | A 2.04 | H 1.57 | V 2.32 | L 2.34 | R 1.96 | I 1.81 | M 1.83
N10: K 2 | C 1.76 | M 2.18 | R 2.81 | Q 2.07 | F 1.69 | L 1 | H 2.17 | I 2.19 | P 2.31 | A 2.04 | V 1.62 | T 1.55 | W 2.25 | Y 1.99 | S 2.2 | E 2.33 | D 2.87 | G 2.82
Q11: W 2.01 | V 1.45 | S 1.79 | H 2.07 | Y 1.39 | D 2.56 | M 2.39 | R 2.29 | L 2.23 | E 2.39 | C 1.9 | K 1.97 | T 2.04 | N 2.34 | G 2.62 | P 2.02 | A 1.66 | F 2.13 | I 1.39
W4: Y 2.56 | R 2.77 | F 2.54 | D 3.18 | C 3.19 | K 2.85 | H 2.69 | I 3.03 | N 2.78 | Q 3.35 | P 2.02 | T 3.14 | L 2.4 | A 2.93 | V 3.11 | S 3.2 | G 2.99 | M 2.98
T9: Y 1.84 | A 2.71 | H 2.54 | L 1.52 | F 1.8 | D 2.39 | W 1.81 | N 1.56 | C 2.21 | K 1.97 | Q 2.75 | V 3.67 | G 2.07 | E 2.88 | I 1.69 | S 2.37 | P 1.91 | R 1.61 | M 2.35
Q12: Y 1.48 | S 2.62 | G 2.69 | M 1.83 | K 1.84 | L 1.67 | V 2.17 | F 1.45 | H 1.92 | A 1.84 | T 2.13 | R 2.37 | W 2.6 | E 2.43 | D 2.37 | I 2.55 | P 2.73 | C 2.06 | N 2.1
E8: Y 1.87 | F 1.57 | W 2.9 | S 1.67 | C 1.59 | G 1.64 | V 1.21 | A 1.57 | K 1.39 | Q 1.89 | H 1.95 | N 2.07 | P 1.87 | D 2.11 | R 1.99 | I 2.01 | T 1.61 | M 2.73 | L 2.31
L7: C 2.5 | F 2.13 | E 3.03 | V 2.36 | R 2.16 | H 2.18 | A 2.33 | Q 2.79 | I 1.82 | P 2.84 | N 2.84 | G 2.6 | T 2.16 | K 2.79 | D 3.63 | S 2.8 | M 1.94 | Y 2.27 | W 1.33
